Laboratory results as given in US20240377400A1, “METHODS FOR TREATING A SUBTYPE OF COLORECTAL CANCER” (Cornell University, priority 2021, published 2024).

Legend:
[1] = tested on: MTO-sgPrkci/sgPrkcz tumors; experiment: Subcutaneous MTO-sgPrkci/sgPrkcz tumors in syngeneic C57BL/6J mice treated with PEGPH20; assay type: in vivo, mouse
Description: FIGS. 8F-8J illustrate subcutaneous injection of sgPrkci/Prkcz and sgC MTOs in WT mice. Mice were treated twice a week with Veh or PEGPH20 0.0375 mg/kg for 3 weeks (MTOs: sgC n=10, sgC PEGPH20-treated n=10, sgPrkci/Prkcz n=10, and sgPrkci/Prkcz PEGPH20-treated n=8). Experimental design (F); Immunohistochemistry (IHC) for HA, Masson's trichrome, and αSMA (G) staining quantification (H); tumor volume (I) and tumor weight (J). Scale bars, 100 μm.
For colonoscopy-guided orthotopic injection in the colon submucosa using mouse tumor organoids (MTOs), a 10 μl organoid suspension of equivalent to 40-50 MTOs admixed with 10% Matrigel (Corning) was directly injected into the colonic submucosa of 7 weeks old C57BL/6 mice. 4 weeks after implantation, tumors were collected and analyzed histologically. Orthotopic tumor sizes were measured by caliper after mice were sacrificed. For xenografts using MTOs, a 100 μl cell suspension of equivalent to 0.5×10^6 cells of sgPrkci/Prkcz or sgC MTOs admixed with 30% Matrigel (Corning) was directly injected subcutaneously into the right flank of 7 weeks old C57BL/6 mice. Tumors were allowed to grow for 14 days, and mice were randomly divided to receive vehicle, n=20, or PEGPH20 (0.0375 mg/kg, 2 days each week) via retro-orbital injection, n=18. Tumors were measured twice a week. Mice were euthanized three weeks after treatment and tumors were analyzed histologically. For the combination therapy of anti-PD-L1 (Clone B7-H1, Bioxcell) antibody and PEGPH20, mice were injected with a dose of 5 mg/kg (body mass) of anti-PD-L1 antibody in combination with PEGPH20 (n=15) twice a week for 4 weeks until they were sacrificed.
To address the potential role of HA stromal accumulation in the tumorigenesis of intestinal mesenchymal tumors in vivo, mouse tumor organoids (MTO) with mutations in Apc, Trp53, Kras, and Tgfbr2 (Tauriello et al., 2018) and with deletion of Prkci and Prkcz by CRISPR/Cas9 were characterized. MTO-sgPrkci/sgPrkcz recapitulated the observed phenotype in human organoids showing in vitro upregulation of Has1, Has2, and Has3 transcripts, increased expression of HA, and enrichment in EMT and TGFβ signaling signatures (FIGS. 8A-8E). […] Next, the impact of depleting HA on tumorigenesis was tested. To that end, MTO-sgPrkci/sgPrkcz or MTO-sgC were subcutaneously transplanted into syngeneic C57BL/6J mice and treated with a low dose of clinical-grade pegylated hyaluronidase (PEGPH20; 0.0375 mg/Kg), equivalent to a human dose evaluated in clinical trials, or with vehicle (FIG. 8F).

MTO-sgPrkci/sgPrkcz = experiment: PEGPH20 treatment in vitro of mouse tumor organoids, qPCR; assay type: cell-based; settings: PEGPH20 2.5 μg/ml every other day for 6 days
Excerpt: To perform PRKCI and PRKCZ editing in PDOs, single-guide RNA sequences targeting PRKCI and PRKCZ (Table 3), were purchased from Synthego and transduced into PDOs with recombinant Streptococcus pyogenes Cas9 protein (Truecut Cas9 Protein v2, Thermo. To knock out Prkcz in mouse sgPrcki MTOs (Linares et al., 2021), single-guide RNA sequence targeting Prkcz (Table 3) was purchased from Synthego and transduced into sgPrcki MTOs as described above. PRKCI, PRKCZ, and Prkcz were knocked out using the Neon Transfection System 1 (Invitrogen) following the manufacturer's protocol and single clones were expanded and screened by protein immunoblotting. For the deletion of Prkci and Prkcz in normal organoids, 500 nM 4-OH-tamoxifen was added the second day after organoids were passaged. […]
Total RNA from cultured organoids was extracted using TRIZOL reagent (Invitrogen) and purified by the RNeasy Mini Kit (QIAGEN), followed by DNase treatment. After quantification using a Nanodrop 1000 spectrophotometer (Thermo Scientific), RNA was either processed for RNA-seq or reverse-transcribed using random primers and MultiScribe Reverse Transcriptase (Applied Biosystems). Gene expression was analyzed by amplifying 500 ng of the complementary DNA using the CFX96 Real Time PCR Detection System with SYBR Green Master Mix (BioRad) and primers described in Table 2. […]

[2] = tested on: MTO-sgPrkci/sgPrkcz liver metastases; experiment: Liver metastasis model, intrasplenic injection of sgPrkci/Prkcz MTOs; assay type: in vivo, mouse; settings: 5 doses over 2.5 weeks
Excerpt: CRC predominantly metastasizes to the liver, which is the leading cause of death. Five-year overall survival for metastatic CRC patients is only 14.7%. Furthermore, patients with metastatic liver disease do worse than those without liver disease across different types of cancer and are totally refractory to ICB. Based on data that PEGPH20 remodels the tumor microenvironment and enables ICB in primary MSS CRC, the potential role of targeting HA in liver metastasis was investigated. To directly test therapeutic effects on liver metastatic disease, MTO-sgPrkci/sgPrkcz was inoculated in the portal circulation of wild-type C57BL/6J mice and mice were for two weeks and a half (5 doses) with a low clinically relevant dose of PEGPH20 ([…]) or in combination with anti-PDL1 or/and anti-CTLA4 (FIG. 22A).
Intrasplenic injection of sgPrkci/Prkcz MTOs in WT mice. Mice were treated twice a week with Veh or PEGPH20 0.0375 mg/kg and/or αPD-L1 (5 mg/kg) and/or aCTLA4 (100 ug/dose) for 2.5 weeks (n: sgPrkci/Prkcz MTOs Veh-treated=7, sgPrkciiPrkcz MTOs PEGPH20-treated=7, sgPrkci/Prkcz MTOs PEGPH20 and αPD-L1-treated=7, and sgPrkci/Prkcz MTOs PEGPH20 and aCTLA4-treated=6).

pancreatic cancer = pancreatic cancer patients; cited from earlier work

B1: PEGPH20: a PEGylated version of human recombinant PH20 hyaluronidase; clinical-grade pegylated hyaluronidase (Halozyme Therapeutics) (protein, UniProt P38567 36-490, looked up)
Hyaluronidase PH-20: LNFRAPPVIPNVPFLWAWNAPSEFCLGKFDEPLDMSLFSFIGSPRINATGQGVTIFYVDRLGYYPYIDSITGVTVNGGIPQKISLQDHLDKAKKDITFYMPVDNLGMAVIDWEEWRPTWARNWKPKDVYKNRSIELVQQQNVQLSLTEATEKAKQEFEKAGKDFLVETIKLGKLLRPNHLWGYYLFPDCYNHHYKKPGYNGSCFNVEIKRNDDLSWLWNESTALYPSIYLNTQQSPVAATLYVRNRVREAIRVSKIPDAKSPLPVFAYTRIVFTDQVLKFLSQDELVYTFGETVALGASGIVIWGTLSIMRSMKSCLLLDNYMETILNPYIINVTLAAKMCSQVLCQEQGVCIRKNWNSSDYLHLNPDNFAIQLEKGGKFTVRGKPTLEDLEQFSEKFYCSCYSTLSCKEKADVKDTDAVDVCIADGVCIDAFLKPPMETEEPQIFYNASPSTLS
modifications: PEGylated
- signatures related to invasion, tumor progression, and desmoplasia (EMT, myogenesis, angiogenesis, TGFβ signaling, stromal activation, CMS4 subtype) ([1]; GSEA of Quant-seq, treated versus Veh): decrease
- IFN and allograft rejection signatures ([1]; GSEA of RNAseq, allografts from MTO-sgPrkci/sgPrkcz): enrichment
- tumor volume and weight ([1]; PEGPH20 0.0375 mg/Kg twice a week, 3 weeks): sensitive
- desmoplastic phenotype: expression of HA, collagen, and αSMA+ ([1]; PEGPH20 0.0375 mg/Kg twice a week, 3 weeks, IHC): reverted
- Anxa10 expression (MTO-sgPrkci/sgPrkcz): reduced
- Clu levels (MTO-sgPrkci/sgPrkcz): without changes
- number of established liver tumors and volume of those tumors [2]: reducing
- metastatic burden of MTO-sgPrkci/sgPrkcz ([2]; PEGPH20 0.0375 mg/kg, αPD-L1 5 mg/kg, aCTLA4 100 ug/dose): markedly decreased
- duration of response or progression-free or overall survival (pancreatic cancer): no improvement
- response rate in the experimental arm (pancreatic cancer): higher
